Data on 1 molecule can be found in patent publication US20230220589A1.

Test [1] concerns the target M17-modified M NTAA target peptides. Nature of the test: encoding assay; P2 Q.
Test [2] deals with M17-modified W NTAA target peptides. Briefly: encoding assay; P2 S.
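Also: fraction of recording tags encoded.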

B1: upgraded binder after additional maturation round (SEQ ID NO: 62) (designed binder, not shown: small tags and cut ends; large carriers)
chain: TVPDRSEIAGKWYVVALASNTEFYLRGKDRVKSAMVRISFQGEDELKVSSAVPSPNGCYKVERTWKKTSDDGEVYNSRAAKLKVEVLDTDYKSYAVIYATRVKDRRTDHQMILYSRSPDVSPAATAIFRKLAGERNYTDEMVAMLPRQEECTVDEV
With B1, the encoding yield in test [1] turned out to be 0.01; in test [2], 0.03.
